Experimental data published in patent publication US20220267469A1.
Blank lines part the entries; values can stand above or below the binder they belong to.

Assays:
[1] = target: Biotinylated human BSSL (human) (UniProt P19835); test: SPR single cycle kinetics, scFv captured by anti-FLAG M2
[2] = target: Biotinylated human BSSL (human) (UniProt P19835); test: ELISA, b-hBSSL coated through streptavidin at 1 µg/ml, detection HRP anti-FLAG M2, A450
[3] = target: Biotinylated human BSSL (human) (UniProt P19835); test: flow cytometry displacement assay; 1.5 ug antibody, 1 ug b-hBSSL
[4] = target: Biotinylated human BSSL (human) (UniProt P19835); test: flow cytometry displacement assay; 3.0 ug antibody, 1 ug b-hBSSL

Sequence of Biotinylated human BSSL (human) (P19835 other isoform, or with tags, fused parts or gaps): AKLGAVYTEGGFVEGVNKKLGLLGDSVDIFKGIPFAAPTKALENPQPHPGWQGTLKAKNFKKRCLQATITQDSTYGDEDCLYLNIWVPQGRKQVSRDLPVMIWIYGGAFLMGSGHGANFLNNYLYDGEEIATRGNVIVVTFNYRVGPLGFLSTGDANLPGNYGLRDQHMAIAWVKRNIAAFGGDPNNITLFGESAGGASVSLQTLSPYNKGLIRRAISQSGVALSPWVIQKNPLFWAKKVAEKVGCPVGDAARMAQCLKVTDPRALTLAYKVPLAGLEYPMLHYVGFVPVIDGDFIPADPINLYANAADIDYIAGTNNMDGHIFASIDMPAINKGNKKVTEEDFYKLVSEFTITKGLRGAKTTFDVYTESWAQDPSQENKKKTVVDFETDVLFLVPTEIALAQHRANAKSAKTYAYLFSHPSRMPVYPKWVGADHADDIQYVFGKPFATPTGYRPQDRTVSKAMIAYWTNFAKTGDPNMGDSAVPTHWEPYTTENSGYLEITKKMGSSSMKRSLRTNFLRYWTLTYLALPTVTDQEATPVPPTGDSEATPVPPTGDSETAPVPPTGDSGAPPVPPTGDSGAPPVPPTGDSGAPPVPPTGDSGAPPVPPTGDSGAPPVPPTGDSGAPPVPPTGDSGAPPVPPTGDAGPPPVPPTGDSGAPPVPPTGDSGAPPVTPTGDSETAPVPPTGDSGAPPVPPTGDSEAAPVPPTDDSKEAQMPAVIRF

Kd [1]: 0.8 nM | koff [1]: 4.4e-05 s⁻¹ | kon [1]: 55000 M⁻¹ s⁻¹ | EC50 (read off the curve) [2]: 0.02 µg/mL
B1: AS20 scFv (scFv, V domains shown, not shown: small tags and cut ends)
VH: QVQLQQPGAELVKPGASVKMSCKASGYTFTSYNMHWVKQTPGQGLEWIGVIYPGNGDTSYNQKFKGKATLTADKSSSTAYMQLSSLTSEDSAVYYCARDYYGSSPLGYWGQGTTLTVSS
VL: QIVLTQSPAVMSASPGEKVTMTCSASSSISYMHWYQQKPGTSPKRWIYDTSKLASGVPARFSGSGSGTSYSLTISSMEAEDAATYYCHQRSSYPTFGGGTKLEIK
modifications: Gly-Ser linker; C-terminal 3xFLAG and His6 tags

percentage reduction of b-hBSSL binding to CD14+ monocytes [3]: 3% | percentage reduction of b-hBSSL binding to CD14+ monocytes [4]: 0%
B2: S-SL048-75 hIgG4 S228P (antibody, V domains shown)
VH: QVQLVQSGAEVKKPGASVKVSCKASGYTFTSYNMHWVRQAPGQGLEWMGVIYPGGGYTSYAQKFKGRVTMTRDTSTSTVYMELSSLRSEDTAVYYCARDYYGSSPLGYWGQGTLVTVSS
VL: DIQMTQSPSSLSASVGDRVTITCRASQSISYLNWYQQKPGKAPKLLIYATSNLQSGVPSRFSGSGSGTDFTLTISSLQPEDFATYYCHQRSSSPTFGQGTKLEIK
